T1: human GPVI on platelets (human, UniProt Q9HCN6 21-339)
T1 sequence (looked up): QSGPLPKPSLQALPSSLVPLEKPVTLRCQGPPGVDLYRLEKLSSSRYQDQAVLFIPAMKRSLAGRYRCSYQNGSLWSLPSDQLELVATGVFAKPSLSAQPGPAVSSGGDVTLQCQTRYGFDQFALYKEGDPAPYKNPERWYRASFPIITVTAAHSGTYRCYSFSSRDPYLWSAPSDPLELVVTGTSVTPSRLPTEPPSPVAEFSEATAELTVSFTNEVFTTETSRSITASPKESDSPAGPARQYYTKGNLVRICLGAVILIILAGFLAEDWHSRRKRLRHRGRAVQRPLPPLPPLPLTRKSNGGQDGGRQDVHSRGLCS

T2: human GPVI protein, soluble extracellular domain (D1 and D2) (human, UniProt Q9HCN6 21-267)
T2 construct: extracellular domain; also called hGPVI; human glycoprotein VI
T2 sequence (looked up): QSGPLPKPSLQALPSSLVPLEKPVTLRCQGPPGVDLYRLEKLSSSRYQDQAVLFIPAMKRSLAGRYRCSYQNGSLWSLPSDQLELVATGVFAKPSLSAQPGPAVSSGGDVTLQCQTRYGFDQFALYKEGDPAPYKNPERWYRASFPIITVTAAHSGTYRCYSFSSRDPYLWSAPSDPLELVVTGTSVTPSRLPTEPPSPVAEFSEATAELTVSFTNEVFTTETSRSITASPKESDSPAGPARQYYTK


Experiments:
human GPVI on platelets = molecular target: T1, human GPVI on platelets; assay: cell-based or functional assay
[1] = molecular target: T2, human GPVI protein, soluble …; assay: SPR (Biacore 3000), human GPVI immobilised, Fab analyte
Protocol: Surface plasmon resonance technology on a Biacore 3000 (GE Healthcare) was used for detailed kinetic characterisation of purified antibody fragments. An assay with immobilised human GPVI was used. Typically, 300 RU of GPVI were immobilised on a research grade CM5 chip by amine reactive coupling, resulting in an Rmax of 200 RU for the bound antibody fragment. Binding kinetics were measured over a concentration range between 3.2 to 112 nM in HBS-EP (10 mM HEPES pH 7.4, 150 mM NaCl, 3 mM EDTA, 0.005% Surfactant P20) at a flow rate of 30 μl/min. Chip surfaces were regenerated with 10 mM glycine pH2.0. Kinetic parameters were analysed and calculated in the BIAevaluation program package (version 4.1) using a flow cell without immobilised GPVI as reference. A 1:1 binding model with mass transfer was applied for a global fit of the data for curves corresponding to analyte concentrations from 3-56 nM of Fab fragment.
Note that the Biacore assay used to measure the data in this example is different in terms of immobilized binding partner (GPVI versus the mAb/Fab fragment) and this leads to the different Biacore affinities as reported in Table 5.

hGPVI-hFc fusion protein [2] = molecular target: T3, hGPVI-hFc fusion protein (human); assay: DELFIA competition assay: Fab preincubated with GPVI-Fc (3 µg/ml), binding to collagen-coated plate, Test 1
T3 construct: also called GPVI-Fc; human GPVI-Fc fusion protein
Protocol: (§1) Collagen coated 384 well plates (Pierce) were blocked with 3% BSA for 2 h. Increasing concentrations of anti GPVI Fab fragments (0.3-20 μg/ml) were incubated with recombinant GPVI (Fusion protein of the extracellular domain of GPVI and Fc-Part of human IgG; 3 μg/ml). The GPVI-Fab mixture was added to collagen coated plates and incubated for 1 h at RT. 384 well plates were washed (DELFIA wash buffer, Perkin Elmer) five times and Eu-labelled anti-human IgG (100 ng/ml Perkin Elmer) was added. Following 1 h incubation at room temperature plates were washed again five times, enhancement solution (Perkin Elmer) was added and incubated for 10 min. Fluorescence was detected at 360/612 nm using a Tecan Ultra reader. Shown in Table 15 are examples of the inhibitory effect of recombinantly produced anti-GPVI Fab fragments on GPVI collagen binding.

hGPVI-hFc fusion protein [3] = molecular target: T3, hGPVI-hFc fusion protein; assay: DELFIA competition assay: Fab preincubated with GPVI-Fc (3 µg/ml), binding to collagen-coated plate, Test 2
Protocol: as §1

[4] = molecular target: T2, human GPVI protein, soluble …; assay: SPR (Biacore 3000), Fab immobilised, human GPVI analyte
Protocol: Surface plasmon resonance technology on a Biacore 3000 (GE Healthcare) was used for detailed kinetic characterization of purified antibody fragments. A direct binding assay was used with the anti-GPVI Fab as the ligand and human GPVI as analyte. Typically, 500 RU of anti-GPVI Fab were immobilized on a research grade CM5 chip by amine reactive coupling, resulting in an Rmax of 200 RU for the bound GPVI molecule. Binding kinetics were measured over a concentration range typically between 0.8 to 208 nM in HBS-EP (10 mM HEPES pH 7.4, 150 mM NaCl, 3 mM EDTA, 0.005% Surfactant P20) at a flow rate of 30 μl/min. Chip surfaces were regenerated with 10 mM glycine pH 2.0. Kinetic parameters were analyzed and calculated in the BIAevaluation program package (version 4.1) using a flow cell without immobilized Fab as reference. A 1:1 binding model with mass transfer was applied for a global fit of the data for curves.

hGPVI-hFc fusion protein [5] = molecular target: T3, hGPVI-hFc fusion protein; assay: DELFIA competition assay: Fab preincubated with GPVI-Fc (3 µg/ml), binding to collagen-coated plate, Test 3
Protocol: as §1

Binder | IC50 for inhibition of collagen induced platelet aggregation (human PRP), Test 1 (human GPVI on platelets) [µg/mL] | IC50 for inhibition of collagen induced platelet aggregation (human PRP), Test 2 (human GPVI on platelets) [µg/mL] | IC50 for inhibition of collagen induced platelet aggregation (human PRP), Test 3 (human GPVI on platelets) [µg/mL] | Kd [1] [nM] | koff [1] [s⁻¹] | kon [1] [M⁻¹ s⁻¹] | IC50 (hGPVI-hFc fusion protein [2]) [µg/mL] | IC50 (hGPVI-hFc fusion protein [3]) [µg/mL] | Kd [4] [nM] | koff [4] [s⁻¹] | kon [4] [M⁻¹ s⁻¹] | IC50 (hGPVI-hFc fusion protein [5]) [µg/mL]
humanized anti-GPVI Fab VL1/VH2 (Fab, V domains shown, Recombinant Fab: VH fused to CH1 of human IGHG1 (Q569F4), HC ends in DKTHT; VL fused to human constant kappa (Q502W4); also called VL1 with VH2) VH: QVQLQESGPGLVAPSQSLSITCTVSGFSLTGYGVNWVRQPPSRGLEWLGMIWGDGSTDYQSTLKSRLSISKDNSKSQVFLKMNSLTTDDTARYYCARDLPMDYWGQGTSVTVSS VL: DIQMTQSPSSLSASVGGRVTITCKASQDINKYIAWYQHKPGKGPSLLIHYTSTLQPGVPSRFSGSGSGRDYSFSISNLQPEDIATYYCLQYANLLTFGGGTKLEIKR | 2.3 | 2 | 1.1 | 0.2 | 3e-05 | 113000 | 1.17 | 0.82 |  |  |  | 
Fab 390-G (recombinant glycosylated Fab of clone 390) (Fab, V domains shown, additional N-glycosylation motif in VH kept, Chimeric Fab from HEK293: VL fused to human constant kappa (IGKC, Q502W4), VH to CH1 of human IGHG1 (Q569F4)) VH: QVQLKESGPGLVAPSQSLSITCTVSGFSLTGYGVNWVRQPPGKGLEWLGMIWGDGSTDYNSTLKSRLSISKDNSKSQVFLKMNSLQTDDTARYYCARDLPMDYWGQGTSVTVSS VL: DIQMTQSPSSLSASLGGKVTITCKASQDINKYIAWYQHKPGKGPSLLIHYTSTLQPGIPSRFSGSGSGRDYSFSISNLEPEDIATYYCLQYANLLTFGGGTKLEIKR |  |  |  |  |  |  |  |  | 0.05 | 1.5e-05 | 320000 | 
humanized anti-GPVI Fab VL1/VH1 (Fab, V domains shown, Recombinant Fab: VH fused to CH1 of human IGHG1 (Q569F4), HC ends in DKTHT; VL fused to human constant kappa (Q502W4); also called VL1 with VH1) VH: QVQLQESGPGLVAPSQSLSITCTVSGFSLTGYGVNWVRQPPSRGLEWLGMIWGDGSTDYQSTLKSRLSISKDTSKSQVFLKMNSLTTDDTARYYCARDLPMDYWGQGTSVTVSS VL: DIQMTQSPSSLSASVGGRVTITCKASQDINKYIAWYQHKPGKGPSLLIHYTSTLQPGVPSRFSGSGSGRDYSFSISNLQPEDIATYYCLQYANLLTFGGGTKLEIKR | 1.5 | 2.3 |  | 0.4 | 4e-05 | 111000 | 1.1 | 0.75 |  |  |  | 1
humanized anti-GPVI Fab VL1/VH5 (Fab, V domains shown, Recombinant Fab: VH fused to CH1 of human IGHG1 (Q569F4), HC ends in DKTHT; VL fused to human constant kappa (Q502W4); also called VL1 with VH5) VH: QVQLQESGPGLVAPSQSLSITCTVSGFSLTGYGVNWVRQPPSRGLEWLGMIWGDGSTDYQSTLKSRLSISKDNSKSQVFLKMNSLTTDDTARYYCARDLPMDEWGQGTSVTVSS VL: DIQMTQSPSSLSASVGGRVTITCKASQDINKYIAWYQHKPGKGPSLLIHYTSTLQPGVPSRFSGSGSGRDYSFSISNLQPEDIATYYCLQYANLLTFGGGTKLEIKR | 1.9 | 2.3 | 1.2 | 0.4 | 3e-05 | 81000 | 1.41 | 1.58 |  |  |  | 1.24

More lines, in order of falling Kd [1], values ahead:

IC50 for inhibition of collagen induced platelet aggregation (human PRP), Test 1 (human GPVI on platelets) [µg/mL] | IC50 for inhibition of collagen induced platelet aggregation (human PRP), Test 2 (human GPVI on platelets) [µg/mL] | IC50 for inhibition of collagen induced platelet aggregation (human PRP), Test 3 (human GPVI on platelets) [µg/mL] | Kd [1] [nM] | koff [1] [s⁻¹] | kon [1] [M⁻¹ s⁻¹] | IC50 (hGPVI-hFc fusion protein [2]) [µg/mL] | IC50 (hGPVI-hFc fusion protein [3]) [µg/mL] | Kd [4] [nM] | koff [4] [s⁻¹] | kon [4] [M⁻¹ s⁻¹] | IC50 (hGPVI-hFc fusion protein [5]) [µg/mL] | Binder
1.4 | 2.4 | 2.3 | 0.3 | 3e-05 | 108000 | 0.81 | 0.73 |  |  |  | 1.05 | humanized anti-GPVI Fab VL2/VH2 (Fab, V domains shown, Recombinant Fab: VH fused to CH1 of human IGHG1 (Q569F4), HC ends in DKTHT; VL fused to human constant kappa (Q502W4); also called VL2 with VH2) VH: QVQLQESGPGLVAPSQSLSITCTVSGFSLTGYGVNWVRQPPSRGLEWLGMIWGDGSTDYQSTLKSRLSISKDNSKSQVFLKMNSLTTDDTARYYCARDLPMDYWGQGTSVTVSS VL: DIQMTQSPSSLSASVGGRVTITCKASQDINKYIAWYQHKPGKGPSLLIHYTSTLQPGVPSRFSGSGSGRDYSFSISNLQPEDIATYYCLQYAHLLTFGGGTKLEIKR
1 | 2.3 | 2 | 0.3 | 4e-05 | 151000 | 0.72 | 0.72 |  |  |  | 1.02 | humanized anti-GPVI Fab VL3/VH4 (Fab, V domains shown, Recombinant Fab: VH fused to CH1 of human IGHG1 (Q569F4), HC ends in DKTHT; also called VL3 with VH4) VH: QVQLQESGPGLVAPSQSLSITCTVSGFSLTYYGVNWVRQPPSRGLEWLGMIWGDGSTDYQSTLKSRLSISKDNSKSQVFLKMNSLTTDDTARYYCARDLPMDYWGQGTSVTVSS VL: DIQMTQSPSSLSASVGGRVTITCKASQDINKYIAWYQHKPGKGPSLLIHYTSTLQPGVPSRFSGSGSGRDYSFSISNLQPEDIATYYCLQYALLLTFGGGTKLEIKR
1.9 | 0.9 | 2.1 | 0.2 | 3e-05 | 132000 | 0.67 | 0.9 |  |  |  | 1.04 | humanized anti-GPVI Fab VL3/VH2 (Fab, V domains shown, Recombinant Fab: VH fused to CH1 of human IGHG1 (Q569F4), HC ends in DKTHT; VL fused to human constant kappa (Q502W4); also called VL3 with VH2) VH: QVQLQESGPGLVAPSQSLSITCTVSGFSLTGYGVNWVRQPPSRGLEWLGMIWGDGSTDYQSTLKSRLSISKDNSKSQVFLKMNSLTTDDTARYYCARDLPMDYWGQGTSVTVSS VL: DIQMTQSPSSLSASVGGRVTITCKASQDINKYIAWYQHKPGKGPSLLIHYTSTLQPGVPSRFSGSGSGRDYSFSISNLQPEDIATYYCLQYALLLTFGGGTKLEIKR
1.6 | 1.8 | 1.2 | 0.2 | 2e-05 | 124000 | 1.01 | 1.14 |  |  |  | 1.06 | humanized anti-GPVI Fab VL1/VH4 (Fab, V domains shown, Recombinant Fab: VH fused to CH1 of human IGHG1 (Q569F4), HC ends in DKTHT; VL fused to human constant kappa (Q502W4); also called VL1 with VH4) VH: QVQLQESGPGLVAPSQSLSITCTVSGFSLTYYGVNWVRQPPSRGLEWLGMIWGDGSTDYQSTLKSRLSISKDNSKSQVFLKMNSLTTDDTARYYCARDLPMDYWGQGTSVTVSS VL: DIQMTQSPSSLSASVGGRVTITCKASQDINKYIAWYQHKPGKGPSLLIHYTSTLQPGVPSRFSGSGSGRDYSFSISNLQPEDIATYYCLQYANLLTFGGGTKLEIKR
1.7 | 1.5 | 1.5 | 0.1 | 2e-05 | 148000 | 0.63 | 1.24 |  |  |  | 0.87 | humanized anti-GPVI Fab VL1/VH3 (Fab, V domains shown, Recombinant Fab: VH fused to CH1 of human IGHG1 (Q569F4), HC ends in DKTHT; VL fused to human constant kappa (Q502W4); also called VL1 with VH3) VH: EVQLLESGPGLVAPSGSLSITCTVSGFSLTGYGVNWVRQPPGKGLEWLGMIWGDGSTDYQSTLKSRLSISKDNSKSQVFLKMNSLRTDDTARYYCARDLPMDYWGLGTSVTVSS VL: DIQMTQSPSSLSASVGGRVTITCKASQDINKYIAWYQHKPGKGPSLLIHYTSTLQPGVPSRFSGSGSGRDYSFSISNLQPEDIATYYCLQYANLLTFGGGTKLEIKR
